# Laboratory results reported in the nanobody polyreactivity screen of Harvey et al. (2022).
# Assay: yeast display, Sf9 membrane polyspecificity reagent, FACS + sequencing; frameworks hold sequencing errors
# Method in brief: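 In a synthetic yeast display library (Saccharomyces cerevisiae BJ5465), nanobody expression was induced with galactose for 36–48 hours. FACS gates were set low and high (top ~1%) using anti-HA fluorescence for expression and streptavidin fluorescence for binding of the Sf9 membrane reagent. Each polyreactivity label is drawn from the gate of origin.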
row,Sequence,polyreactivity (PSR sort gate)
1,QVQLVESGGGLVQAGGSLRLSCAASGFTFRENAMGWYRQAPGKERELVAAISKRGGTTYYADSVKGRFTISRDNAKNTVYLQMNSLKPEDTAVYYCAAESYSGPYAYEYWGQGTQVTVSS,high polyreactivity
2,QVQLGESGGGLVQAGGSLRLSCAASGRTFYWYTMGWYRQAPGKESELVAAISTRGVRTYYADSVKGRFTISRDNAKNTVYLQMNSLKPADTAVYYCNNYVAYDYWGQGTQVTVSS,low polyreactivity
3,QVQLVESGGGLVQAGGSLRLSCAASGRIFLGYAMGRYRQAPGKERELVAAITFSGGSTYYADSVKGRFTISRDNAKNTVYLQMNSLKPEDTAVYYCAAPRLRRTYPRNRYDYWGQGTQVTVSS,low polyreactivity
4,QVHLVESCGGLVQAGGSLRLSCAASGSTFTYNVMGSYRQAPGKERELVAAISWSGGSTFYADSVKGRFTISRDNAKNTVYLQMNSLKPEDTAVYYCNKDHLVYPSEFYYWGQGTQVTVSS,low polyreactivity
5,QVQLVESGGGLVQAGGSLRLSCAASGSIFAAYTMGWYRQAPGKQRELVAAISSGTRTNYADSVKGRFTISRDNAKNTVYLQLNSLKPEDTAVYYWNADVSALWWPEEWYNASEFDYWGQGTQVTVSS,low polyreactivity
6,QVQLVESGGGLVQAGGSLRLRCAASGRTFQYNAMGWYRQAPGKESELVAANTSNGGSTYYADSVKGRFTISRDNAKNTVYLQMNSLNPEDTAVYYCAKAYRYVDRGYRLLRYGFWGQGTQVTVSS,high polyreactivity
7,QVQLVESGGGFVQAGGSLRLSCAASGRIFPGYAKGWYRQAPGKERELVAAISASGGSTYYADSVKGRFTISRDNAKNTVYLQMNSLKPEDTAVYYCNAVYRRYEYWGQGTQVTVSS,high polyreactivity
8,QVQLVESGGGLVQAGGSLRLSCAASGFTFPYNGMGWYRQAPGKERELVASISWSGASTYYADSVKGRFTISRDNAKNTVYLQMNSLKPEDTAVYYCAADPGYYSWGSSQDDYWGQGTQVTVSS,low polyreactivity
9,QVQRVESGGGLVQAGGSLRLSCAASGLTFEYNAMGWYRQAPGKEREFVATISNGGITSYADSVKGRFTISRDNAKNTVYLQMNSLKPEDTGVYYCAASYADSPTTDQLWLEYDSWGQGTQVTVSS,low polyreactivity
10,QVQLVESGGVLVQAGGSLRLSCAASGFTFSLYGMGWYRQAPGKEREFVAAIRSGGSTNYADSVKGRFTISRDNAKNTVYLQMNRLKPEDTAVYYCATDIHSVHNNRDKHDYDYWGQGTQVTVSS,low polyreactivity
11,QVQLVESGGGLVQAGGRLRLSCAASGRTFPIYAMGWYRQAPGKERELVAAITRGGRTNYADSVKGRFTISRDNAKNTVYLQMNSLKPEDTAVYYCAARTYGTYLYAEYDYWGQGTQVTVSS,high polyreactivity
12,QVQLVESGGGLVQAGGSLRLSCAASGITFPYYAMGWYRQAPGKERELVAAITIRSGRTYYADSVKGRFTISRDNAMNTVYLQMNSLKPEDTAVYYCAARLSNTYGYWGQGTQVTVSS,high polyreactivity
13,QVQLVESGGGLVQAGGSLRLSCAASGRTFSYYAMGWYRQAPGKERELVAAISWRGGSTYYADSVKGRFTISRDNAKNTVYLQMNSLKPEDTAVYYCAALPRYALGEDYWGQGTQVTVSS,high polyreactivity
14,QVQLVETGGGIVQAGASLRLSCAASGRIFPPYAMGWYRQAPGKERELVAAISSSGGSTYYADSVKGRFTISRDNGKNTVYLQMNSLKPEDTAVYYCATFFARGYNSWGQGTQVTVSS,high polyreactivity
15,QVHLVESGGGLVQAGGSLRLSCAASGRILGKYSMGWYRQAPGKERELVAAIRLRGGSTYYADSVKGRFTISRDNAKNTVYLQMNSLKPEDTAVYYCAARYWDRSQAYNYWGQGTQVTVSS,high polyreactivity
16,QVQLVESGGGLVQAGGSLRIRCAASGSTFSEYDMGWYRQAPGKERELVAAITTSGGSTYYADSVKGRFTISSDNAKNTVYLQMNSLKPEDTAVYYCAADSIGNYLLYDYWGQGTQVSVSS,low polyreactivity
17,QLHLVESWGGLVQAGGSLRLSCAASGILFQNNDMGSYRQAPGKERELVAAITGSGGSTYYADSVKGRFTISRDNATNTVYLQMNSLKPEDTAVYYCNAVWEYYGKSDYWGQGTQVTVSS,low polyreactivity
18,QVQLVESGGGLVQAGGSLRLSCAASGYIFDYYAMGWYRQAPWKERELVAAISSSGGTTYYADSVKGRFTISRDNAKNTVYLQMNSLKPEDTAVYYCAARKSRWQRGYYYWGQGTQVTVSS,high polyreactivity
19,QVQLVESGGGLVQAGGSLRLSCAASGRIFLTYVMGWYRQAPGKERELVAAITSSGGTTYYADSVKGRFTISRDNAKNTVYLQMKSLKPEDTAVYYCNAGSSYQYGPRYNYWGQGTQVTVSS,low polyreactivity
20,QVQLVESGGGLVQAGGSLRLSCAASGSTFSYYTMGWSRQAPGKERELVAAISRGGSTNYADSVKGRFTISRDNAKNTVYLQMNSLKPEDTAVYYCAAEPGRTKRYKVRMDYWGQGTQVTVSS,high polyreactivity
21,QVQLVESGGGLVQAGGSLRLSCAASGIFWANGMGWYRQAPGKEREWVAAITSGGSTNYADSVKGRFTISRDNAKNTVYLQMNSLKPEDTAVYYCNKPWYSYRYGGVGYGYWGQGTQVTVSS,low polyreactivity
22,QVQLVESGGGLVQAGGSLRLSCAASGRIFALYAMGWYRQAPGKERELVASITGGTSTNYADSVKGRFTISRDNAKNTVYLQMNSLKPEDTEVYYCAARGYTTGTRNRRYNYWGQGTQVTVSS,high polyreactivity

row,Sequence,polyreactivity (PSR sort gate)
1,QVQLVESGGGLVQAGGSLRLSCAASGFIITSYAMGWYRQAPGKERELVATISSSGGTTYYADSVKGRFTISRDTAKNTVYLQMNSLKPEDTAVYYCAKDAFGWGRVYYYRSGYWGQGTQVTVSS,high polyreactivity
2,QVQLVESGGGLVQAGGSLRLSCAASGSTFLGNAMGWYRQAPGKERELVATITGSSGSTYYADSVKGRFTISRDNAKNTVYLQMNSLKPEDTAVYYCAAQRRVVGRHGLSLIRYDYWGQGTQVTVSS,low polyreactivity
3,QVQLVESGGGLVQAGGSLRLSCAASGSTFEDYAMGWYRQAPGKERELVAVITGNGGSTNYADSVKGRFTISRDNAKNTVYLQMNSLKPEDTAVYYCAADFYTFVRSDYWGQGTQVTVSS,low polyreactivity
4,QVQLVESGGGLVHAGGSLRLSCAASGLTFKRYAMGWSRQAPGKERELVASITGNGGSTYYADSVKGRFTISRDNAKNTVYSQMNSLKPEDTAVYYCNARRYVRTSQQPLYDYWGQGTQVTVSS,high polyreactivity
5,QVQLVESGGGLVQAGGSLRLSCAASGRIFVTNAMGWSRQGPGKERELVAAISYRGGRTYYADSVKGRFTISRDNAKNTVYLQMNSLKPEDTAVYYCNAVTRWPFDYWGQGTQVTVSS,high polyreactivity
6,QVQLVESGGGLVQAGGSLRLSCAASGFIFGANAMGWYRPAPGKERELVAAITWSAGRTYYADSVKGRFTISRVNAKNTVYLKMNSLKREDSAVYYCAKQRARQSPEVGYWGQGTQVTVSS,high polyreactivity
7,QVQLVESVGGLVQAGGSLRLSCAASGSIFWWYAMGLARQAPGKERELVAAISTRDGNTYYADSVKGRFTISRDNANNTVYLQMNSLKPEDTAVYYCAADYFRYYPYDYWGQGTQVTVSS,low polyreactivity
8,QVQLVESGGGLVQAGGSLRLSCAASGRTITWNAMGWYRQAPGKERELVADITNNGGSTYYADSVKGRFTISRDNAKNTVYLQMNSLKPEDTAVYYCAKRRNYWFSFDYWGQGTQVTVSS,low polyreactivity
9,QVQLVESGGGLVQAGGSLRLSCAASGRIFQYYAAMGWYRQAPGKERELVASIRATGGSTYYADSVKGRFTISRDNAKNTVYLQMNSLKPEDTAVYYCAARFAAKSLPAYDYWGQGTQVTVSS,low polyreactivity
10,QVQLVESGGGLVQAGGSLRLSCAASGGTFLGNAMGWYRQAPGKERELVADITSGGSTNYADSVKGRFTISRDNAKNTVYLQMNSLKPEDTAVDYCNAEYSTSTVWEYDYWGQGTQVTVSS,low polyreactivity
11,QVQLVESGGGLVQAGCRLRLSCAASGININAMGWYRQAPGKERELVAAISRGGSTYYADSVKGRFTISRDNAKNTVYLQMNSLKPEDTAVYYCAKLIGRWRLYHTFVKGDYWGQGTQVTVSS,high polyreactivity
12,QVQLVESGGGLVQAGGSLRLSCAASGRTFYYYAMGWYRPAPGKERELVAAIRRSGSSTYYADSVKGRFTISRDNAKNTVYLQMNSLKPEDTAVYYCAAAVYQRARYYWGQGTQVTVSS,high polyreactivity
13,QVQLVESGGGLVQAGGSLRLSCAASGSTFVRYAMGWYRQAPGKERELVAAISKSGGSTYYADSVKGRFTISRDNAKNTVYLQMNSLKPEDTAVYFCNADVYKNSKFRIMGYWGQGTQVTVSS,low polyreactivity
14,QVQLVESGGGLVQAGGSLRLSCAASGSIFTENAMGWYRQPPGKERELVATITITGSTNYADSVKGRFTISRDNAKKTVYLQMNSLKPADTAVYYCNADLYIAFSASAYDYWGQGTQVTVSS,low polyreactivity
15,QVQHVESGGGLVQAGGSLRLSCAASGRTFWINAMGWYRQARGKERELVAAITRGGRTYADSVKGRFTISRDNAKNSVYLQMNSLKPEDTAVYFCAADSYRLSGHHGYDFWGQGTQLTVSS,high polyreactivity
16,QVQLVESGGGLVQAGGSLRLSCAASGSILPRYGMGWYRQAPGKEREFVAAISWRGGRTYYADSVKGRFTISRDNAKNTVYLQMNSLKPEDTAVYYCAARANIYTRLDYWGQGTQVTVSS,high polyreactivity
17,QVHLVESGGGLVQAGGSLRLSCAASGRIFNSYAMGWYRPAPGKERELVAAINWTDVSTYYADSVKGRFTLSRYNAKNTVYVELNSLTPDDTAVYYGPDVRWGSYTLSDDYWGQGTQVTVSS,low polyreactivity
18,QVQLVESGGGLVQAGGSLRLSCAASGYTFQYNDMGWYRQAPGKERELVAGISIGGSTNYADSVKGRFTISRDNAKNTVYLQMNSLKPEDTAVYYCAARTLWFPGTTSTSVGYKYGYWGQGTQVTVSS,low polyreactivity
19,QVQLVESGGGLVQAGGSLRLSCAASGRTVEQNAMGLYRQAPGKERELVASITSVGSTDYADSVKGRFTISRDNAKNTVYLQMNSLKPEDTAVYYCAKTLGSQNYDFDYWGKGTQVTVSS,low polyreactivity
20,QVQLVESGGGLVQAGGSLRLSCAASGRTFYSYAMGWYRQAPGKERELVAAITSGDSTNYADSVKGRFTISRDNAKNTVYLQMNSLKPEDTAVYYCAAEYSGWYWYQHYNYWGQGTQVTVSS,high polyreactivity
21,QVQLVESGGGLVQAGGSLRLSCAASGSILSLYTMGWYRQAPGKERELVAAITRSGGSTYYADSVKGRFTISRDNAKNTVYLQMNSLKPEDTAVYYCAATREVTSYSSAPRVYYWGQGTQVTVSS,high polyreactivity
